Laboratory results from patent US20200407442A1 (WUXI BIOLOGICS IRELAND, published 2020).

T1: full-length human LAG-3 on cells (human, UniProt P18627 23-525)
T1 sequence: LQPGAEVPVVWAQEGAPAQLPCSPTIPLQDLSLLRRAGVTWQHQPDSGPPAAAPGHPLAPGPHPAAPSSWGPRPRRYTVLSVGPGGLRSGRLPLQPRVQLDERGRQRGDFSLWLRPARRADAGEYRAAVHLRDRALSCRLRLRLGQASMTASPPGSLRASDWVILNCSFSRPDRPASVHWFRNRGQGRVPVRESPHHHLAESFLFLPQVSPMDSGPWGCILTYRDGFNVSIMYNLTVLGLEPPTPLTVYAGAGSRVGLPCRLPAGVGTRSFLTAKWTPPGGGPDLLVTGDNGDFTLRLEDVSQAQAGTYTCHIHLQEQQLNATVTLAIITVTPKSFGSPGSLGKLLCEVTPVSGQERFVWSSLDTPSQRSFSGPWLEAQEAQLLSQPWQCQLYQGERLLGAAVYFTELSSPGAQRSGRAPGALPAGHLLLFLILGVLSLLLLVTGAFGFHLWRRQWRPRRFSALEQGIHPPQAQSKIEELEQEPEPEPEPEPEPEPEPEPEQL

T2: human LAG-3-ECD.D12.mFc mutant A139G (human, UniProt P18627 37-252)
T2 construct: construct limits as for m26
T2 chain: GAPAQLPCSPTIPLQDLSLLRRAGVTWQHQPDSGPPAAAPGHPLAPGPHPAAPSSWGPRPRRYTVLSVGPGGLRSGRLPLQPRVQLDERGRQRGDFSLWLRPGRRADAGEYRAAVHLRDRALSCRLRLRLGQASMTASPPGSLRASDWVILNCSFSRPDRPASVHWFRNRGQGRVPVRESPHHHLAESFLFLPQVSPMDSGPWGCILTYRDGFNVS

T3: human LAG-3-ECD.D12.mFc mutant V61A (human, UniProt P18627 37-252)
T3 construct: Alanine scanning mutant; construct limits as for m26
T3 chain: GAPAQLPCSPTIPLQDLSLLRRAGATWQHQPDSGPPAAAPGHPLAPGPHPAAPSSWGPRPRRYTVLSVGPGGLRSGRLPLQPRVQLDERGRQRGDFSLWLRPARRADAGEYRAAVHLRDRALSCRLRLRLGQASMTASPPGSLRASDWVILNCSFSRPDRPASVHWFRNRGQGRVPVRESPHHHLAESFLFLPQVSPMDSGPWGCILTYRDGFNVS

T4: mFc-tagged LAG-3 protein (human, UniProt P18627 30-450)
T4 construct: also called human LAG-3 ECD with mouse Fc tag
T4 sequence: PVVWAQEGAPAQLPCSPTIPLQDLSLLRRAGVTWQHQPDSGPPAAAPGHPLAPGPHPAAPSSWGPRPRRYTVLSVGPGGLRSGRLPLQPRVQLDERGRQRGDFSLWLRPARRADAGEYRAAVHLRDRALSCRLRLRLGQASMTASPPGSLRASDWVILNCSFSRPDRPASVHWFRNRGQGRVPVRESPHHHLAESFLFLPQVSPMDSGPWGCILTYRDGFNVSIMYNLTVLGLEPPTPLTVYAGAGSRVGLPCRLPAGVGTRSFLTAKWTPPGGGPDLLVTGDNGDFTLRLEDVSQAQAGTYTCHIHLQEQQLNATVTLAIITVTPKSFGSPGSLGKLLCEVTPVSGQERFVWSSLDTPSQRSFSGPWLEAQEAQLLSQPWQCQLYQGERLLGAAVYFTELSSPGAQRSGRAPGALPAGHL

T5: human LAG-3 protein (SPR analyte) (human, UniProt P18627 30-450)
T5 sequence: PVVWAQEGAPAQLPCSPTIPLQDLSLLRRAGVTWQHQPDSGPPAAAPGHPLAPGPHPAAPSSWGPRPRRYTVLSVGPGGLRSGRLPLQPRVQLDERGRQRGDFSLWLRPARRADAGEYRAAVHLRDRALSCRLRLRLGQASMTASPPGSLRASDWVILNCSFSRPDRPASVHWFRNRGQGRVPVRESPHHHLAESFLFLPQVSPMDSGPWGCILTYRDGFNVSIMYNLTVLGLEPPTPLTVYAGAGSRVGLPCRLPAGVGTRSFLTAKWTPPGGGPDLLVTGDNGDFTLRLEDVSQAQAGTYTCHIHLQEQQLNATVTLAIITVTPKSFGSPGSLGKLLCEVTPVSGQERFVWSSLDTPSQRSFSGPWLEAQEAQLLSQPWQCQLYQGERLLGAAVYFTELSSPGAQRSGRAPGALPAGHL


Key:
human CD4 = biological target: T6, human CD4 (human, UniProt P01730 26-390, limits assumed); test: ELISA on plate-coated human CD4, OD450
T6 construct: also called human CD4 protein
Experimental: Cross-reactivity to human CD4 was measured by ELISA. Plates were coated with human CD4 at 1μg/mL overnight at 4° C. After blocking and washing, 1 μg/mL of LAG-3 antibodies were added to the plates and incubated at room temperature for 1 h. The plates were then washed and subsequently incubated with corresponding secondary antibody for 45 min. After washing, TMB substrate was added and the color reaction was stopped by 2 M HCl. The absorbance at 450 nm was read using a microplate reader.

[1] = biological target: T1, full-length human LAG-3 on cells; test: cell-based or functional assay
[2] = biological target: T2, human LAG-3-ECD.D12.mFc mutant A139G; test: ELISA, antibody coated, LAG-3 D12.mFc mutant in supernatant, normalised to control mutants
Experimental: (§1) For ELISA binding assay, the antibody 1.53.3-uAb-IgG4k or 3.40.19-uAb-hIgG4L (2 μg/mL) was coated in plates. After interacting with the supernatant that contains quantified LAG-3 mutants or human LAG-3-ECD.D12.mFc protein, HRP conjugated anti-mFc antibody (1:5000; Bethyl, USA) was added as a detection antibody. Absorbance was normalized according to the average absorbance of control mutants. After setting an additional cutoff to the binding fold change (<0.75), the final determined epitope residues were identified.

[3] = biological target: T3, human LAG-3-ECD.D12.mFc mutant V61A; test: as above
Experimental: as §1

mFc-tagged LAG-3 protein [4] = biological target: T4, mFc-tagged LAG-3 protein; test: ELISA competition: blocks mFc-tagged LAG-3 binding to coated LSECtin
Experimental: (§2) 96-well plates were coated with human LSECtin or Galectin-3 at 0.5 μg/mL overnight at 4° C., respectively. Antibodies were serially diluted in 1% BSA-PBS and mixed with mFc-tagged LAG-3 protein. After blocking and washing, the mixture was transferred to the plates and incubated at room temperature for 1 h. The plates were then washed and subsequently incubated with corresponding secondary antibody for 60 min. After washing, TMB substrate was added and the color reaction was stopped by 2M HCl. The absorbance at 450 nm was read using a microplate reader.

mFc-tagged LAG-3 protein [5] = biological target: T4, mFc-tagged LAG-3 protein; test: ELISA competition: blocks mFc-tagged LAG-3 binding to coated Galectin-3
Experimental: as §2

[6] = biological target: T5, human LAG-3 protein (SPR analyte); test: SPR Biacore 8K, antibody captured by anti-human Fc, LAG-3 as analyte
Experimental: Antibodies were characterized for affinity and binding kinetics to human LAG-3 by SPR assay using Biacore 8K. Goat anti-human Fc was pre-immobilized to a sensor chip (CMS), and anti-LAG-3 antibodies were captured when injected to the chip. Various concentrations of human LAG-3 protein and running buffer were flowed through the sensor chip at a flow rate of 30 μL/min for an association phase of 300 s, followed by 3600 s dissociation. The association and dissociation curve was fit by 1:1 Langmuir binding model using Biacore 8K Evaluation Software.

| binding result (human CD4) | EC50, IL-2 luciferase reporter gene assay (Jurkat cells expressing human LAG-3 with Raji cells and SEE) [1] [pM] | Fold Change [2] | Fold Change [3] | EC50 (mFc-tagged LAG-3 protein [4]) [pM] | EC50 (mFc-tagged LAG-3 protein [5]) [pM] | Kd [6] [pM] | koff [6] [s⁻¹] | kon [6] [M⁻¹ s⁻¹] | Binder |
| --- | --- | --- | --- | --- | --- | --- | --- | --- | --- |
| no binding (tested: 66.7 nM) | 1070 | 0.708 | 0.637 | 710 | 740 | 50.5 | 3.33e-05 | 660000 | 1.53.3-uAb-IgG4k (antibody, V domains shown, Fully human antibody from OMT rats; IgG4 kappa by its name) VH: QVQLQQWGAGLLKPSETLSLTCGVYGGSFSGYYWSWIRQPPGMGLEWIGEINHRGNTNYNPSLKSRVTISEDTSKNQFSLRLSSVTAADTAVYFCTRGEDYSDYDYYGDFWGQGTLVTVSS VL: EIVLTQSPATLSLSQGERATLSCRASQSISSYLAWYQQKPGQAPRLLIYAASNRATGIPARFSGSGSGTDFTLTISSLEPEDFAIYYCQQRSNWPLTFGGGTKVEIK |
| no binding (tested: 66.7 nM) | 210 | 0.368 | 0.514 | 510 | 560 | 10.6 | 1.11e-05 | 1.05e+06 | 3.40.19-uAb-IgG4L (antibody, V domains shown, Fully human antibody from OMT rats; IgG4 lambda by its name; also called 3.40.19-uAb-hIgG4L) VH: QLQLQESGPGLVKPSETLSLTCTVSGDSISSTSYYWGWIRQPPGKGLEWIGSFYYSGSTYYNPSLKSRVTISVDTSKNQFSLKLNSVTAADTAVYYCARMQLWSYDVDVWGQGTTVTVSS VL: QSALTQPASVSGSPGQSITISCTGTSSDVGGYDYVAWYQQHPGKVPKLMIYDVSERPSGVSNRFSGSKSGNTASLTISGLQAEDEADYYCSSYTSTTTLVVFGGGTKLSVL |
